According to PMC6908506, “Development of Foot-and-Mouth Disease Virus-Neutralizing Monoclonal Antibodies Derived From Plasmablasts of Infected Cattle and Their Germline Gene Usage” (Frontiers in Immunology, 2019):

B1: F169 (antibody, V domains shown)
VH: QVQLRESGPSLVKPSQTLSLTCTVSGFSLSTYGVAWVRQAPGKALEWIGGISGRGSGSEYYNPPLQSRLSITKDTSRSQVFLSVRTVAPEDTATYYCVKCIDSWCNYDDSGDIDAWGQGLLVTVSS
VL: QAVLTQPSSVSGSLGQRVSITCSGSTSNIGKCDVGWYQRVPESGLRTIIYGNSKRPSGVPDRFSGSKSGTVATLTISSLQAEDEAEYFCATGDYSLRTAVFGSGTTLIVL
B2: B57 (antibody, V domains shown)
VH: QVQLRESGPSLVKPSQTLSLTCTVSGFSLSGYAVTWVRRAPGQALECLGGISRGGLTNNNPALRSRVSITKDDSKSQVSLSVSTVTPEDTATYYCVRLGATKFGDYGCYGYGLYVDTWGQGLPVTVSS
VL: QAVLTQPSSVSGSLGQRVSITCSGSSSNIGRHGVSWYQQVPGSGLRTIIYSGNSRPSGVPDRFSGSKSGNTATLTISSLLAEDEADYFCAADDIVSRTTFFGSVTTLTVL
B3: B66 (antibody, V domains shown)
VH: QVQLRESGPSLVKPSQTLSLTCTVSGFSLTTYSVNWVRQTPGKALECLGGITSGGNAYYQPSLKSRLSITKDNSKNQVSLSINSATPEDTATYYCGKLSGTGVCEGGCACGHDPHVDAWGQGVLVTVSS
VL: QAVLTQPSSVSGSLGQRISITCSGSSNNVGLYNVGWYQQIPGSGLRTIIYAGDRRPSGVPDRFSGSEFGDTATLTISSLQAEDEADYFCVTYDSTISAAVFGSGTTLTVL
B4: B73 (antibody, V domains shown)
VH: QVQLRESGPSLVKPSQTLSLTCTVSGFSLSSYDVGWVRQAPGKALECLGSITNRGKTGYNPALKSRLSITKDNSKSQVSLSLNSVTTEDTATYYCAKLNSGGYGIDGNGCYAFGSNYNLYVDAWGQGLLITVSS
VL: QAVLTQPSSVSGSLGQRVSITCSGSSSNLGTYNVGWYQQVPGSGLRTIIYGSSSRPSGVPDRFSGSRSGNTATLTISSLQAEDEADYFCTAYDHSISTAVSGSGTTLTVL
B5: B74 (antibody)
VH: QVQLRESGPGLVKPSQTLSLTCTASGFSLSIKAVGWVRQAPGKALEWLGSIDTGGNTGYNPGLKSRLSITKDNSKSQVSLSLSSVTTEDSATYYCATVHQETKKSCSDGYYYRNECGAYGDCTVGNCCCSYASDYCNWCDFRRVTPTYTYEHHVEAWGQGLLVTVSS
VL: QAVLTQPSSVSGSLGQRVSITCSGSSGNVGNGYVSWYQLIPGSAPRTLIYGDTTRVSGVPDRFSGSRSGNTATLTISSLQAEDEADYFCASAEDSSNNAVFGSGTTLTVL
B6: A19 (antibody, V domains shown)
VH: QVQLRESGPSLVKPSQTLSLTCTTSGFSLSSYAVGWVRQAPGKALEWVGGISSGGKTCPSPALKTRLSITKLNSRGQVSLSVGSVSTEDTATYYCVKFFSGGWTYSCYGIDFGSVDAWGQGVLVTVSS
VL: QAVLTQPSSVSGSLGQRVSITCSGSSNNIGSYGVGWYQQVPGSGLRTIIYGSTSRPSGVPDRFSGSKSGNTATLTISSLQAEDEADYFCAAGDDSSSSVDVFGSGTTLTVL
B7: B77 (antibody, V domains shown)
VH: QVQLRESGPSLVKPSQTLSLTCTISGFSLSSYTIGWVRQAPGKALEWIGDMSNGGMPYYNPALKSRLSITKHNSKSQVRLSVSSVTPEDTATYYCAKSRYTGDGSIGLYGVDAWGQGLLITVSS
VL: QAVLTQPSSVSGSLGQRVSITCSGTYSNVGTGNYVSWFQQIPGSAPRTLIYSVTNRASGVPDRFSGSRSGHTATLTISSLQAEDEADYFCLSWQSGNTALFGSGTTLTVL
B8: B82 (antibody, V domains shown)
VH: QVQLRESGPSLVKPSQTLSLTCTVSGFSLSNYAVGWVRQAPGKALEYLGGVRLRGRPDYNPALESRLSITKDNSKSQVSLSVSSVTLEDTATYYCAKSSSGLWDGGCCGGSTSCYVDSWGQGLLVTVSS
VL: QAVLTQPSSVSGSLGQRVSITCSGSSSNIGTYTVGWYQQVPGSGLRTIIYSNNNRPSGVPDRFSGSKSGNTATLTISSLQAEDEADYFCVTYESSISTALFGRGTTLTVL

The binders below were run against FMDV O/Mya/98 146S antigen (Foot-and-mouth disease virus serotype …, UniProt G8JKC2, strain) (assay: cell-based or functional assay).

In order of rising “virus neutralizing test on BHK-21 cells, IC50” value:
1. B2  2.6 µg/mL
2. B3  3.13 µg/mL
3. B4  3.28 µg/mL
4. B7  3.91 µg/mL
5. B8  4.17 µg/mL
6. B1  5.56 µg/mL
7. B5  7.81 µg/mL
8. B6  17.9 µg/mL
